Reference: patent publication US20050221391A1, “Reagents and methods for identification of binding agents” (priority 2000, published 2005)
Entries after “also recorded” stand apart in the source; their conditions may differ.

Assays:
[1] = target: tau peptide incorporating the phosphorylated threonine 231 site (tau231P), Biotin-KKVAVVR(phospho)TPPKSPSS; assay: estimated from other studies, method not described
[2] = test system: non-phosphorylated tau and APP peptides; assay: Binding to the respective non-phosphorylated tau and APP peptides
[3] = target: APP668P (APP peptide phosphorylated at threonine 668) (Homo sapiens, UniProt P05067); assay: ELISA binding to immobilized biotinylated APP668P phosphopeptide; settings: synthetic phosphopeptide
Source text: It is also possible to practice the method described above using a phosphopeptide corresponding to the sequence of APP. The sequence of one such peptide is shown below: • Biotin-VEVDAAV(phospho)TPEERHLS (SEQ ID NO. 2) In place of the TG3 antibody, a mAb specific for the phosphothreonine 668 of APP is used. The same antibody detection reagents and methods are used as described above. Examples of antibodies useful in this regard include but are not limited to GF1, GF3, GF5, GF7, GF12, GF25, and GF31. Polyclonal antibodies reactive against substantially similar phosphopeptides may also be useful.
Assays have been established in which the tau and APP phosphopeptides are biotinylated and immobilized on Neutravidin-coated 96 well ELISA plates. […] Concentrations of GF31 in the 5 nM range give a robust signal on such plates, and the binding is very sensitive to the presence of an antibody, TG3, which has a high affinity for the tau peptide (FIG. 5B). Duplicate assays are shown in FIG. 5B, illustrating the reproducibility of the assay.

[4] = target: tau231P (tau peptide phosphorylated at threonine 231) (Homo sapiens, UniProt P10636); assay: ELISA binding to immobilized biotinylated tau231P phosphopeptide; settings: synthetic phosphopeptide
Experimental: To identify compounds which bind to tau peptides phosphorylated on threonine 231, a 96 well or […] ELISA plate is coated with Neuravidin in 20 mM K2HPO4/10 mM KH2PO4, 1 mM EDTA, 0.8% NaCl, 0.01% NAN3, pH 7.2, using a protein concentration of 5 micrograms per ml. All volumes in ELISA plates are 50 microliters, except for storage, where 200 microliters is added. After coating, plates are incubated with 10 mM tris base, 150 mM NaCl, pH 7.4 CIBS) containing 2% bovine serum albumin (BSA) and stored at 4 °C. Plates prepared this way are stable for several weeks.
A peptide derived from the protein tau was utilized, as shown below: • Biotin-KKVAVR(phospho)TPPKSPSS (SEQ D NO. 1) The peptide was diluted to a concentration of 0.5 micromolar in TBS containing 2% BSA, and 50 microliters per well were added followed by incubation at room temperature for one hour. Unbound peptide is washed off with TBS containing 0.5% Tween 20. […] Bound antibody is detected by incubation with a solution of goat anti-mouse Ig or goat anti-rabbit Ig coupled to horse radish peroxidase (HRP) (2 micrograms per ml in TBS containing 1% BSA) for one hour, and excess antibody is removed by washing with TBS containing 0.05% Tween 20. HRP activity is determined by addition of a substrate capable of generating a colored or fluorescent product (i.e., ABTS Substrate solution (BioRad Laboratories, Hercules, Calif.)). […]

Row | Substance | Kd [1] [nM] | binding to the respective non-phosphorylated peptides [2] | binding / recognition of APP668P phosphopeptide [3] | binding / recognition of tau231P phosphopeptide [4]
1 | monoclonal antibody TG3 | 25 |  |  | 
2 | Pin1: prolyl isomerase which binds phosphorylated serine/threonine-proline bonds in proteins |  | does not bind | high affinity; also recorded: binds | high affinity; also recorded: binds
